Numbering of substitutions follows the chain as printed. Names may count otherwise.
B1: wild-type human cystathionine γ-lyase (enzyme, UniProt P32929 1-405, looked up)
chain: MQEKDASSQGFLPHFQHFATQAIHVGQDPEQWTSRAVVPPISLSTTFKQGAPGQHSGFEYSRSGNPTRNCLEKAVAALDGAKYCLAFASGLAATVTITHLLKAGDQIICMDDVYGGTNRYFRQVASEFGLKISFVDCSKIKLLEAAITPETKLVWIETPTNPTQKVIDIEGCAHIVHKHGDIILVVDNTFMSPYFQRPLALGADISMYSATKYMNGHSDVVMGLVSVNCESLHNRLRFLQNSLGAVPSPIDCYLCNRGLKTLHVRMEKHFKNGMAVAQFLESNPWVEKVIYPGLPSHPQHELVKRQCTGCTGMVTFYIKGTLQHAEIFLKNLKLFTLAESLGGFESLAELPAIMTHASVLKNDRDVLGISDTLIRLSVGLEDEEDLLEDLDQALKAAHPPSGSHS
notes: human cystathionine γ-lyase (CSE), wild type; TEV and 3C protease recognition sites follow the His6 tag; No cleavage of the tag is told; also called CSE; WT CSE; source: recombinant, synthetic gene in pET-28b, purified (HisTrap FF Crude, Superdex 200 SEC)
B2: human cystathionine γ-lyase C84S variant (enzyme, UniProt P32929 1-405, looked up)
chain: B1 chain with C84S
notes: human cystathionine γ-lyase (CSE) with C84S; TEV and 3C protease recognition sites follow the His6 tag; also called C84S CSE; source: recombinant, pET-28b, site-directed mutagenesis of the WT vector, purified (HisTrap FF Crude, Superdex 200 SEC)
B3: human cystathionine γ-lyase C310S variant (enzyme, UniProt P32929 1-405, looked up)
chain: B1 chain with C310S
notes: human cystathionine γ-lyase (CSE) with C310S; TEV and 3C protease recognition sites follow the His6 tag; also called C310S CSE; source: recombinant, pET-28b, site-directed mutagenesis of the WT vector, purified (HisTrap FF Crude, Superdex 200 SEC)
B4: human cystathionine γ-lyase C70S variant (enzyme, UniProt P32929 1-405, looked up)
chain: B1 chain with C70S
notes: human cystathionine γ-lyase (CSE) with C70S; TEV and 3C protease recognition sites follow the His6 tag; also called C70S CSE; source: recombinant, pET-28b, site-directed mutagenesis of the WT vector, purified (HisTrap FF Crude, Superdex 200 SEC)
B5: human cystathionine γ-lyase C307S variant (enzyme, UniProt P32929 1-405, looked up)
chain: B1 chain with C307S
notes: human cystathionine γ-lyase (CSE) with C307S; TEV and 3C protease recognition sites follow the His6 tag; also called C307S CSE; source: recombinant, pET-28b, site-directed mutagenesis of the WT vector, purified (HisTrap FF Crude, Superdex 200 SEC)
B6: human cystathionine γ-lyase C172S variant (enzyme, UniProt P32929 1-405, looked up)
chain: B1 chain with C172S
notes: human cystathionine γ-lyase (CSE) with C172S; TEV and 3C protease recognition sites follow the His6 tag; also called C172S CSE; source: recombinant, pET-28b, site-directed mutagenesis of the WT vector, purified (HisTrap FF Crude, Superdex 200 SEC)
B7: human cystathionine γ-lyase C109S variant (enzyme, UniProt P32929 1-405, looked up)
chain: B1 chain with C109S
notes: human cystathionine γ-lyase (CSE) with C109S; TEV and 3C protease recognition sites follow the His6 tag; also called C109S CSE; source: recombinant, pET-28b, site-directed mutagenesis of the WT vector, purified (HisTrap FF Crude, Superdex 200 SEC)
B8: human cystathionine γ-lyase C229S variant (enzyme, UniProt P32929 1-405, looked up)
chain: B1 chain with C229S
notes: human cystathionine γ-lyase (CSE) with C229S; TEV and 3C protease recognition sites follow the His6 tag; also called C229S CSE; source: recombinant, pET-28b, site-directed mutagenesis of the WT vector, purified (HisTrap FF Crude, Superdex 200 SEC)
B9: human cystathionine γ-lyase C137S variant (enzyme, UniProt P32929 1-405, looked up)
chain: B1 chain with C137S
notes: human cystathionine γ-lyase (CSE) with C137S; TEV and 3C protease recognition sites follow the His6 tag; also called C137S CSE; source: recombinant, pET-28b, site-directed mutagenesis of the WT vector, purified (HisTrap FF Crude, Superdex 200 SEC)

Target: the molecule itself
Test: SEC; HiLoad 16/600 Superdex 200 in buffer B (20 mM Tris-HCl, pH 7.5, 150 mM NaCl, 10% glycerol, 100 μM TCEP, 20 μM PLP), after the HisTrap step of the purification

Row | Protein | stoichiometry N
1 | B1 | 4
2 | B2 | 4
3 | B3 | 4
4 | B4 | 4
5 | B5 | 4
6 | B6 | 4
7 | B7 | 4
8 | B8 | 4
9 | B9 | 4
